In PMC2533787 (The Journal of Biological Chemistry, 2008) one finds Kd data, which are given here for 4 molecules.

Broadly, the Kd is the concentration at which binding is half-saturated.

Sequences and labels used below:
B1: BMP-14 (ligand, UniProt P43026 382-501, looked up)
chain: APLATRQGKRPSKNLKARCSRKALHVNFKDMGWDDWIIAPLEYEAFHCEGLCEFPLRSHLEPTNHAVIQTLMNSMDPESTPPTCCVPTRLSPISILFIDSANNVVYKQYEDMVVESCGCR
B2: soluble receptor activator of NF-κB ligand (ligand, UniProt O14788 140-317, looked up)
chain: IRAEKAMVDGSWLDLAKRSKLEAQPFAHLTINATDIPSGSHKVSLSSWYHDRGWAKISNMTFSNGKLIVNQDGFYYLYANICFRHHETSGDLATEYLQLMVYVTKTSIKIPSSHTLMKGGSTKYWSGNSEFHFYSINVGGFFKLRSGEEISIEVSNPSLLDPDQDATYFGAFKVRDID
B3: bone morphogenetic protein-2 (ligand, UniProt P12643 283-396, looked up)
chain: QAKHKQRKRLKSSCKRHPLYVDFSDVGWNDWIVAPPGYHAFYCHGECPFPLADHLNSTNHAIVQTLVNSVNSKIPKACCVPTELSAISMLYLDENEKVVLKNYQDMVVEGCGCR
B4: BMP-13 (ligand, UniProt Q6KF10 336-455, looked up)
chain: TAFASRHGKRHGKKSRLRCSKKPLHVNFKELGWDDWIIAPLEYEAYHCEGVCDFPLRSHLEPTNHAIIQTLMNSMDPGSTPPSCCVPTKLTPISILYIDAGNNVVYKQYEDMVVESCGCR

Sequence of Full-length recombinant human TSG-6 (P98066 18-277): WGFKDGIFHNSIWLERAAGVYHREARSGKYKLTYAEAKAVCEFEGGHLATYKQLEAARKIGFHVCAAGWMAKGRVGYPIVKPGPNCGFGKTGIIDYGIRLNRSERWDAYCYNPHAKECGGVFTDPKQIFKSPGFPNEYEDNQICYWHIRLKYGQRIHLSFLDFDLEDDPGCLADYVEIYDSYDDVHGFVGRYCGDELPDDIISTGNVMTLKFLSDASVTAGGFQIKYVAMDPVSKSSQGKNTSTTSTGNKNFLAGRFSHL

One test concerns the target Full-length recombinant human TSG-6 (human, UniProt P98066 18-277). Kind of test: SPR.
As for B1, the Kd is 184 nM.

For the molecule B2, the Kd was 1970 nM.

Consider B3, for which the Kd is 220 nM.

On to B4, for which the Kd was found to be 236 nM.

The next test deals with CUB_C_TSG6 (the CUB domain and C-terminal 27 amino acids of human TSG-6) (human, UniProt P98066 129-277). In words: SPR. (Surface plasmon resonance follows binding to a sensor surface in real time, without labels.)
Sequence of CUB_C_TSG6 (the CUB domain and C-terminal 27 amino acids of human TSG-6) (P98066 129-277): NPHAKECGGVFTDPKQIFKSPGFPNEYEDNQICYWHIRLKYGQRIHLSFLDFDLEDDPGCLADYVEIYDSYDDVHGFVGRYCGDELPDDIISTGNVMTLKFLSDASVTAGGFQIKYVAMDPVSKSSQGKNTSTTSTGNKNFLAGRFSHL
Take B1: the dissociation constant (Kd) turned out to be 10800 nM.

Molecule B3 had a Kd of 2540 nM.

The molecule B4 yielded a Kd of 6880 nM.
